According to PMC2734569, “Functional mapping of the fission yeast DNA polymerase δ B-subunit Cdc1 by site-directed and random pentapeptide insertion mutagenesis” (BMC Molecular Biology, 2009):

What was measured:
Assay in all cases: two-hybrid; LexA-Cdc1 bait (pBTM116 or pBTM116BN) with Gal4-Pol3 prey and co-expressed c-myc-tagged Cdc27 (pAA-Cdc27) in S. cerevisiae CTY10-5d; ONPG liquid culture beta-galactosidase assay, mean of triplicates, as percent of wild-type Cdc1
Conditions in all cases: partners not purified
Cdc1-J3 = target: T1, Cdc1-J3 (Schizosaccharomyces pombe, UniProt P87324 1-462, Leu-GlyValProLeuLeu-Asp)
T1 construct: Cdc1, S. pombe, with a pentapeptide inserted after residue 62; also called E3; E8; source: yeast two-hybrid fusion, in S. cerevisiae CTY10-5d
T1 sequence (looked up): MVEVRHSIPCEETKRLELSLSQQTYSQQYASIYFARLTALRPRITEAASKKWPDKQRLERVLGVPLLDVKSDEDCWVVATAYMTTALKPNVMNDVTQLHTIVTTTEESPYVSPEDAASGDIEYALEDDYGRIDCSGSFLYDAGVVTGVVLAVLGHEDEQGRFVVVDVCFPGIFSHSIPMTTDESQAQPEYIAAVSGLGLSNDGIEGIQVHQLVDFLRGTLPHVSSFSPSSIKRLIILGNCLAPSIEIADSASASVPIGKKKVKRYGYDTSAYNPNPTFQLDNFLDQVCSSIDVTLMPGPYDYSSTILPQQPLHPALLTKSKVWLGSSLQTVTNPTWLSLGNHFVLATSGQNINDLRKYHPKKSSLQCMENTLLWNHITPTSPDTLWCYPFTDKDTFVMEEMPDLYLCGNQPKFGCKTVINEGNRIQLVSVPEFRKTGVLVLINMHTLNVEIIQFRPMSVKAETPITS

Cdc1-A7 = target: T2, Cdc1-A7 (Schizosaccharomyces pombe, UniProt P87324 1-462, Gly344Ala)
T2 construct: Cdc1, S. pombe, point mutant; source: yeast two-hybrid fusion, in S. cerevisiae CTY10-5d
T2 sequence (looked up): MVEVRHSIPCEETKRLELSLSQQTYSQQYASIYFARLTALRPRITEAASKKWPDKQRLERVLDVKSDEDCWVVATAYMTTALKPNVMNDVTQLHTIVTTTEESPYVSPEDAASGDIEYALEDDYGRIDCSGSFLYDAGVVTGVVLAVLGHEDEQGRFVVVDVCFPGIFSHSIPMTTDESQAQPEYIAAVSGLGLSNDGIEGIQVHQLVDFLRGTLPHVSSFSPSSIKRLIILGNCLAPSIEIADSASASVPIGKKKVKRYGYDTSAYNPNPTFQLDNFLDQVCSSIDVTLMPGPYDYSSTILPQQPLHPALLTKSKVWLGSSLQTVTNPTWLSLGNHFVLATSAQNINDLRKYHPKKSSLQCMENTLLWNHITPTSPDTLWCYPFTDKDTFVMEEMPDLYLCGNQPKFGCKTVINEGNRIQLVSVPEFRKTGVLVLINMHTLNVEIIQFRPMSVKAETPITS

Cdc1-A3 = target: T3, Cdc1-A3 (Schizosaccharomyces pombe, UniProt P87324 1-462, Asp296Ala)
T3 construct: Cdc1, S. pombe, point mutant; source: yeast two-hybrid fusion, in S. cerevisiae CTY10-5d
T3 sequence (looked up): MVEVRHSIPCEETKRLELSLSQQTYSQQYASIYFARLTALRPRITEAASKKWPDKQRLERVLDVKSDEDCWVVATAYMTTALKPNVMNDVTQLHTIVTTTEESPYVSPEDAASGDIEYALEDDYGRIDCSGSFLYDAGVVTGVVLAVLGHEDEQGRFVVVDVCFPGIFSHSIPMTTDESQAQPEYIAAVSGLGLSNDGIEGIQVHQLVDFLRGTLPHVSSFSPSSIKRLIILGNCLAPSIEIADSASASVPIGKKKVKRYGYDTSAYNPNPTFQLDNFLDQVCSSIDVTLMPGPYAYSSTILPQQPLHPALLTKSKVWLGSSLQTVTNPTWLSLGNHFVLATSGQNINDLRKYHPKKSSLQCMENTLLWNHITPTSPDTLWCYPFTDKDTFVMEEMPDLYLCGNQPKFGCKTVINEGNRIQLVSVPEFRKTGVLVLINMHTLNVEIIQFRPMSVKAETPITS

Cdc1-J6 = target: T4, Cdc1-J6 (Schizosaccharomyces pombe, UniProt P87324 1-462, Tyr-GlyValProHisTyr-Gly)
T4 construct: Cdc1, S. pombe, with a pentapeptide inserted after residue 124; source: yeast two-hybrid fusion, in S. cerevisiae CTY10-5d
T4 sequence (looked up): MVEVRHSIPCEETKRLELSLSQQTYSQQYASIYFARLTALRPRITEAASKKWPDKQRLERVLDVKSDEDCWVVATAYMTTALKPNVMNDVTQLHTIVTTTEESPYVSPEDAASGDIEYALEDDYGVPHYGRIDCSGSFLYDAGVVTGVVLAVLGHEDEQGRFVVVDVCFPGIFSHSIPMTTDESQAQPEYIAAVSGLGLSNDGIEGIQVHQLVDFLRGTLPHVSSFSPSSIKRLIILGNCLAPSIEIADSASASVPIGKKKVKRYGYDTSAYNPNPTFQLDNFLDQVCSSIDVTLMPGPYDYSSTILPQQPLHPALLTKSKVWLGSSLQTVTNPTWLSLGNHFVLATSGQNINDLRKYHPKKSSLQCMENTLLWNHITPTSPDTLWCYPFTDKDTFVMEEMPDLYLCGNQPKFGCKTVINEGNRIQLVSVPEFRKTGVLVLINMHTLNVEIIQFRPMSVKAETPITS

B1: Pol3 (fission yeast DNA polymerase delta catalytic subunit) (natural protein, Schizosaccharomyces pombe, UniProt P30316 1-1086, looked up)
chain: MTDRSSNEGVVLNKENYPFPRRNGSIHGEITDVKRRRLSERNGYGDKKGSSSKEKTSSFEDELAEYASQLDQDEIKSSKDQQWQRPALPAINPEKDDIYFQQIDSEEFTEGSVPSIRLFGVTDNGNSILVHVVGFLPYFYVKAPVGFRPEMLERFTQDLDATCNGGVIDHCIIEMKENLYGFQGNEKSPFIKIFTTNPRILSRARNVFERGEFNFEELFPVGVGVTTFESNTQYLLRFMIDCDVVGMNWIHLPASKYQFRYQNRVSNCQIEAWINYKDLISLPAEGQWSKMAPLRIMSFDIECAGRKGVFPDPSIDPVIQIASIVTQYGDSTPFVRNVFCVDTCSQIVGTQVYEFQNQAEMLSSWSKFVRDVDPDVLIGYNICNFDIPYLLDRAKSLRIHNFPLLGRIHNFFSVAKETTFSSKAYGTRESKTTSIPGRLQLDMLQVMQRDFKLRSYSLNAVCSQFLGEQKEDVHYSIITDLQNGTADSRRRLAIYCLKDAYLPQRLMDKLMCFVNYTEMARVTGVPFNFLLARGQQIKVISQLFRKALQHDLVVPNIRVNGTDEQYEGATVIEPIKGYYDTPIATLDFSSLYPSIMQAHNLCYTTLLDSNTAELLKLKQDVDYSVTPNGDYFVKPHVRKGLLPIILADLLNARKKAKADLKKETDPFKKAVLDGRQLALKVSANSVYGFTGATNGRLPCLAISSSVTSYGRQMIEKTKDVVEKRYRIENGYSHDAVVIYGDTDSVMVKFGVKTLPEAMKLGEEAANYVSDQFPNPIKLEFEKVYFPYLLISKKRYAGLFWTRTDTYDKMDSKGIETVRRDNCPLVSYVIDTALRKMLIDQDVEGAQLFTKKVISDLLQNKIDMSQLVITKALSKTDYAAKMAHVELAERMRKRDAGSAPAIGDRVAYVIIKGAQGDQFYMRSEDPIYVLENNIPIDAKYYLENQLSKPLLRIFEPILGEKASSLLHGDHTRTISMAAPSVGGIMKFAVKVETCLGCKAPIKKGKTALCENCLNRSAELYQRQVAQVNDLEVRFARLWTQCQRCQGSMHQDVICTSRDCPIFYMRIAEHKKLQQSVDLLKRFDEMSW
notes: DNA polymerase delta catalytic subunit Pol3, S. pombe; prey plasmid named pACT-Pol3 in the results and pGAD2F-Pol3 in the methods; also called Gal4-Pol3; pACT-Pol3; source: yeast two-hybrid fusion, in S. cerevisiae CTY10-5d
In the case of B1, the “two-hybrid beta-galactosidase activity, % of wild-type Cdc1” value (Cdc1-J3) is reported as 54%, the “two-hybrid beta-galactosidase activity, % of wild-type Cdc1” value (Cdc1-A7) is reported as 9% and the “two-hybrid beta-galactosidase activity, % of wild-type Cdc1” value (Cdc1-A3) is reported as < 1%. The “two-hybrid beta-galactosidase activity, % of wild-type Cdc1” value (Cdc1-J6) was < 1%.
